Like-named read-outs stand apart in the source and are kept apart here. Where no end group is shown, it is not given here.
Assays:
TRPV1 [1] = molecular target: T1, TRPV1 (Rattus norvegicus, UniProt O35433); test: cell-based
T1 construct: expressed in transfected cells; host or cells: Xenopus laevis oocytes injected with cRNA
Protocol: To control the expression level of the TRPV1 channels, experiments were initiated with a first activation of TRPV1 with 1 μM capsaicin (CAP). […] This activation gives an inward non-selective cation current. […] Before application of HCRG21, cells are washed with ND96 to remove any presence of […]. […] However, when rHCRG21 was co-applied together with the agonist capsaicin, a reduction of the current was observed (Figure 5b). […] A concentration–response curve was constructed in order to assess the concentration dependence of the rHCRG21 induced effect. The IC50 value yielded 6.9 ± 0.4 μM (Figure 5c).
Figure 5 Activity profile of rHCRG21 (10 μM) on the TRPV1 receptor. The figures show the results of one representative experiment. Whole-cell current traces in control and rHCRG21 conditions are shown. […] All data represent the average of at least three independent experiments (n ≥ 3) and are presented as mean ± standard error; (c) Concentration–response curve for rHCRG21 on TRPV1 receptor.
For the expression of rKv1.1, hKv1.3, rKv1.4, rKv1.5, rKv1.6, Shaker IR, hERG, and TRPV1 in Xenopus oocytes, the linearized plasmids were transcribed using the T7 or SP6 mMESSAGE-mMACHINE transcription kit (Ambion, Austin, TX, USA). The harvesting of stage V–VI oocytes from anaesthetized female Xenopus laevis frog was previously described. Oocytes were injected with 50 nL of cRNA at a concentration of 1 ng/nL using a micro-injector (Drummond Scientific, Broomall, PA, USA). The oocytes were incubated in a solution containing (in mM): NaCl, 96; KCl, 2; CaCl2, 1.8; MgCl2, 2 and HEPES, 5 (pH 7.4), supplemented with 50 mg/L gentamicin sulfate.
Two-electrode voltage-clamp recordings were performed at room temperature (18–22 °C) using a Geneclamp 500 amplifier (Molecular Devices, Sunnyvale, CA, USA) controlled by a pClamp data acquisition system (Axon Instruments, Foster City, CA, USA). Whole cell currents from oocytes were recorded 1–4 days after injection. Bath solution composition was ND96 (in mM): NaCl, 96; KCl, 2; CaCl2, 1.8; MgCl2, 2, and HEPES, 5 (pH 7.4). Voltage and current electrodes were filled with 3 M KCl. Resistances of both electrodes were kept between 0.8 and 1.5 MΩ. The elicited currents were filtered and sampled at, respectively, 1 kHz and 10 kHz (for potassium currents) and at, respectively, 0.2 kHz and 0.5 kHz (for TRPV1 currents), using a four-pole low-pass Bessel filter. Leak subtraction was performed using a –P/4 protocol. KV1.1–KV1.6 and Shaker currents were evoked by 500 ms depolarizations to 0 mV followed by a 500 ms pulse to −50 mV, from a holding potential of −90 mV. Current traces of hERG channels were elicited by applying a +40 mV prepulse for 2 s followed by a step to −120 mV for 2 s. TRPV1 currents were measured in ND96 solution using a protocol of −90 mV during 400 s. The recording chamber was perfused at a rate of 2 mL·min^−1 with a ND96 solution. As previously described, capsaicin (2 μM) was used as an agonist and capsazepine (10 μM) as an antagonist of TRPV1. Capsaicin and capsazepine were purchased from Sigma. All data represent at least 3 independent experiments (n ≥ 3) in which independent experiments represent experiments on different cells expressing TRPV1 channel and are presented as mean ± standard error.

α-chymotrypsin [2] = molecular target: α-chymotrypsin (Bos taurus, UniProt P00766); conditions: cited from earlier work
Source text: The HCGS peptide subfamily and their evolutionary relationships were described in details previously. […] Moreo ...

TRPV1 [3] = molecular target: T1, TRPV1; conditions: cited from earlier work
Source text: They are the first sea anemone peptide characterized as TRPV1 modulators. […] It belongs to the family of polymodal TRP channels, serving as a molecular cellular sensor, which is activated by a wide spectrum of physical and chemical stimuli. They have diverse biophysical properties such as cation selectivity, specific mechanisms of activation, and they play the main role in ma ... || To control the expression level of the TRPV1 channels, experiments were initiated with a first activation of TRPV1 with 1 μM capsaicin (CAP). […] This activation gives an inward non-selective cation current. […] Before application of HCRG21, cells are washed with ND96 to remove any presence of capsazepine. […] Similarly ... || (+ 3 further places)

trypsin [4] = conditions: cited from earlier work
Source text: The HCGS peptide subfamily and their evolutionary relationships were described in details previously. […] It is shown, that the first known H. crispa analgesic Kunitz-type peptides, APHC1–APHC3, have a Thr residue (instead of Lys or Arg) at position P1, similar to other representatives of the analgesic cluster (Figure 1a,b).

[5] = test system: serine, cysteine and aspartate proteases; conditions: cited from earlier work
Source text: To date, a number of highly homologous native serine protease inhibitors has been isolated from different species: Anemonia sulcata, Heteractis crispa, Anthopleura aff. xanthogrammica, Anthopleura fuscoviridis, Stichodactyla helianthus, and Stichodactyla haddoni.

[6] = test system: voltage-gated potassium channels; conditions: cited from earlier work
Source text: For many potent Kv channel blocking toxins, such as α-DTX, DTX-K, and DTX-I, isolated from the snake Dendroaspis polylepis, it has been well established that mainly a series of positive charged residues (for example, R3, R4, K5, K37, K39, K46, and K50 in α-DTX) are crucial for interaction with the Kv channel. […] Although there are many positively charged residues present in the sequence of HCRG21, they do differ in position with known Kv1.1–Kv1.6 blockers, such as α-DTX, DTX-K, DTX-I, AsKC1, and ShPI-1 (Figure 1c). […] Noteworthy, several positively charged residues are conserved between HCRG21 and ShPI-1 (in positions 8, 19, 28, 51, and 55, Figure 1c). Therefore, other Kv channel isoforms should be tested for their sensitivity to HCRG21 as ...

α-chymotrypsin [7] = test: enzyme inhibition kinetics (Dixon method); trypsin with BAPNA, α-chymotrypsin with BTEE as substrate; substrate concentrations 133 and 65 mM; both enzymes 215 nM; peptide 0 up to 3.2 mM; three parallel experiments
[8] = molecular target: transient receptor potential family member vanilloid 1 (TRPV1) (UniProt O35433)
trypsin [9] = test: enzyme inhibition kinetics (Dixon method); trypsin with BAPNA, α-chymotrypsin with BTEE as substrate; substrate concentrations 133 and 65 mM; both enzymes 215 nM; peptide 0 up to 3.2 mM; three parallel experiments

T1 sequence (O35433 whole entry): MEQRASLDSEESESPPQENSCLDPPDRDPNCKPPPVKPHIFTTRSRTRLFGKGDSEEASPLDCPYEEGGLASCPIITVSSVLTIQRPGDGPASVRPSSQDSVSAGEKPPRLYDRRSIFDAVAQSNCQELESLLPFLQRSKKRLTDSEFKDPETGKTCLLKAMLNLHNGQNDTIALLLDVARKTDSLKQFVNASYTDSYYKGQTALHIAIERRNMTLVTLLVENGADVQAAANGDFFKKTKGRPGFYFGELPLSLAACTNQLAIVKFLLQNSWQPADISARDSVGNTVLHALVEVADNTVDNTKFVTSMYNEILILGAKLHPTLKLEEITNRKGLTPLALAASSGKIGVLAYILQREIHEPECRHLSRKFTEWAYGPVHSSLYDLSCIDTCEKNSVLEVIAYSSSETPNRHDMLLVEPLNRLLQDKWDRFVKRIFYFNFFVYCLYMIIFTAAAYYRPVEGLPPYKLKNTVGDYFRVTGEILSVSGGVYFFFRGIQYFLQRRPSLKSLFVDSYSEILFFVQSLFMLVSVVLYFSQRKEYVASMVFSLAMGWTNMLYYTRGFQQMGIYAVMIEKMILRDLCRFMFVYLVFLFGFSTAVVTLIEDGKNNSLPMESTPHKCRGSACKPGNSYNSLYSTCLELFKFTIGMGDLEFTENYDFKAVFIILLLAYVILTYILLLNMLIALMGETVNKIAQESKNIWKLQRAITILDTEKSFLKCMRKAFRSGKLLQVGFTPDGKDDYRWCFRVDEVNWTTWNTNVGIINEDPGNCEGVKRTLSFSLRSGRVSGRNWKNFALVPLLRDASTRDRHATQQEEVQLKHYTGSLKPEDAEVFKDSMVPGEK
Chain of transient receptor potential family member vanilloid 1 (TRPV1) (O35433 whole entry): as above

Molecule: COc1cc(CNC(=O)CCCC/C=C/C(C)C)ccc1O [capsaicin, reference compound]
- effect on TRPV1 (control agonist) (TRPV1 [1]): opens the channels

Molecule: Oc1cc2c(cc1O)CN(C(=S)NCCc1ccc(Cl)cc1)CCC2 [capsazepine, reference compound]
- effect on capsaicin-activated TRPV1 (control antagonist) (TRPV1 [1]): closes the channels allowing the current levels to return to zero

Molecule: APHC1: H. crispa analgesic Kunitz-type peptide (UniProt B2G331)
- Ki (α-chymotrypsin [2]): 5000 nM

Molecule: APHC1: H. crispa analgesic Kunitz-type peptide (UniProt B2G331) (GSICLEPKVVGPCTAYFRRFYFDSETGKCTVFIYGGCEGNGNNFETLRACRAICRA; three disulfides (Kunitz fold)) [reference compound]
- EC50 (TRPV1 [3]; read-out: EC50, decrease of capsaicin induced currents through TRPV1): 54 ± 4 nM

Molecule: APHC2: H. crispa analgesic Kunitz-type peptide (UniProt C0HJF4)
- Ki (α-chymotrypsin [2]): 4500 nM

Molecule: APHC3: H. crispa analgesic Kunitz-type peptide (UniProt C0HJF3)
- Ki (α-chymotrypsin [2]): 7000 nM

Molecule: AsKC1: kalicludine from Anemonia sulcata (UniProt Q9TWG0) (INKDCLLPMDVGRCRASHPRYYYNSSSKRCEKFIYGGCRGNANNFHTLEECEKVCGVR; ends and bridges not checked; cysteine pairing not given here; UniProt Q9TWG0 1-58, looked up)
- Ki (trypsin [4]): < 0.3 nM

Molecule: AsKC2: kalicludine from Anemonia sulcata (UniProt Q9TWF9) (INKDCLLPMDVGRCRARHPRYYYNSSSRRCEKFIYGGCRGNANNFITKKECEKVCGVR; ends and bridges not checked; cysteine pairing not given here; UniProt Q9TWF9 1-58, looked up)
- Ki (trypsin [4]): < 0.3 nM

Molecule: AsKC3: Kunitz-type peptide from Anemonia sulcata (UniProt Q9TWF8) (INGDCELPKVVGRCRARFPRYYYNLSSRRCEKFIYGGCGGNANNFHTLEECEKVCGVRS; ends and bridges not checked; cysteine pairing not given here; UniProt Q9TWF8 1-59, looked up)
- Ki (trypsin [4]): < 0.3 nM

Molecule: SHPI-1: protease inhibitor from the sea anemone Stichodactyla helianthus (UniProt P31713) (SICSEPKKVGRCKGYFPRFYFDSETGKCTPFIYGGCGGNGNNFETLHQCRAICRA; UniProt P31713 1-55, looked up)
- protease inhibitory specificity [5]: inhibits not only serine but also cysteine and aspartate proteases
- binding to Kv1.1, Kv1.2, and Kv1.6 channels [6]: binds with high affinity
- Ki (α-chymotrypsin [2]): 2.3 nM
- Ki (trypsin [4]): 0.11 nM

Molecule: recombinant HCRG21, Kunitz-type peptide from the sea anemone Heteractis crispa (from UniProt P0DL86 1-56)
- Ki (α-chymotrypsin [7]): 700 nM

B1: recombinant HCRG21, Kunitz-type peptide from the sea anemone Heteractis crispa (peptide)
chain: RGICSEPKVVGPCTAYFRRFYFDSETGKCTPFIYGGCEGNGNNFETLRACRAICRA
- IC50 of the inhibition of the capsaicin-induced current through TRPV1 in X. laevis oocytes (two-electrode voltage clamp, peptide co-applied with capsaicin; concentration-response curve) [8]: 6900 nM
- Ki (trypsin [9]): 200 nM

B2: DkTx: double-knot toxin from the Chinese bird spider Ornithoctonus huwena (peptide, UniProt P0CH43 1-79, looked up)
Tau-theraphotoxin-Hs1a: DCAKEGEVCSWGKKCCDLDNFYCPMEFIPHCKKYKPYVPVTTNCAKEGEVCGWGSKCCHGLDCPLAFIPYCEKYRGRND
- effect of DkTx on TRPV1 current (TRPV1 [3]; conformational change in the receptor upper pore region): enhances the ion current through the channel
- TRPV1 agonism (TRPV1 [3]; ref 48 (DkTx), ref 49 (VaTx1–VaTx3), ref 50 (BmP01)): agonists
